Earlier results, collected in paper PMC9570074.
Where two headings read alike, the source gives them in different places. Each block holds one substance with its values, some of them ahead of it.

Key:
CD30L (Homo sapiens) = CD30L (Homo sapiens) (UniProt P32971); test: SPR
TRAIL (Homo sapiens) [1] = target: TRAIL (Homo sapiens) (UniProt P50591)
TRAIL (Homo sapiens) [2] = target: TRAIL (Homo sapiens) (UniProt P50591); remark: listed apart in the source

UniProt P50591, sequence (P50591 whole entry): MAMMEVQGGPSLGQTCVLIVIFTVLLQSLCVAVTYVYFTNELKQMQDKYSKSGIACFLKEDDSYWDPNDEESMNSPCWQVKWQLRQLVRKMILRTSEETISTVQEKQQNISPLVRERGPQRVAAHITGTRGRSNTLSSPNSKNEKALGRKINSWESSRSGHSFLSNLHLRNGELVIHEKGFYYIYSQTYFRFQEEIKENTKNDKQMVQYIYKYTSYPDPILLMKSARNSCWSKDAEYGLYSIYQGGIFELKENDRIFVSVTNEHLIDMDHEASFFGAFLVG
UniProt P32971, sequence (P32971 whole entry): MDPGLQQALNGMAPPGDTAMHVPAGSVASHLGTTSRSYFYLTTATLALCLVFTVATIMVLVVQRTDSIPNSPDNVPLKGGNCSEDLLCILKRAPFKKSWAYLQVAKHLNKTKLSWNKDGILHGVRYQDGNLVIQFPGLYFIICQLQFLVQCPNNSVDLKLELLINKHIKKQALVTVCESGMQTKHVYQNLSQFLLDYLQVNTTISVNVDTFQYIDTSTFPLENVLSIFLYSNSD

Kd (CD30L (Homo sapiens)): 5 nM
Substance: CD30 (from UniProt P28908)

Kd (TRAIL (Homo sapiens) [1]): 1 nM
Substance: DcR2 (from UniProt Q9UBN6)

Kd (TRAIL (Homo sapiens) [2]): 1 nM
Substance: DcR1 (from UniProt O14798)
